Measurements reported in patent publication US12383631 (BRIGHT PEAK THERAPEUTICS, dated 2025).

T1: IL-18 receptor (IL-18Rα/IL-18Rβ) on cells (HEK-Blue IL18R reporter cells, NK-92, KG-1) (human, UniProt Q13478 19-541; O95256 20-599)
T1 sequence (looked up) 1: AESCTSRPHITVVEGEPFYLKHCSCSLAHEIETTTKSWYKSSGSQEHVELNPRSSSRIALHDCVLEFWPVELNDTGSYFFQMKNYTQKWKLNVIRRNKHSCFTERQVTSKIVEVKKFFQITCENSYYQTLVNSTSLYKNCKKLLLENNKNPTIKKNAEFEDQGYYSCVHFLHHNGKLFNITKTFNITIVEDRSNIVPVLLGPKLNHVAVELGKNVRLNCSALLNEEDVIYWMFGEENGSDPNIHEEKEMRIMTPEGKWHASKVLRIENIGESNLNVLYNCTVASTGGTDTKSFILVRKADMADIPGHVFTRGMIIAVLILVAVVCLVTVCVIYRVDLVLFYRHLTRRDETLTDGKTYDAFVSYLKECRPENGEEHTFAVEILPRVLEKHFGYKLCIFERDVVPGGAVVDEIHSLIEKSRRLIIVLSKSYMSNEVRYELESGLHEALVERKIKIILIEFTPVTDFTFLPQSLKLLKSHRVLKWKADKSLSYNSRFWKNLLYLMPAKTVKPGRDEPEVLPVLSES
T1 sequence (looked up) 2: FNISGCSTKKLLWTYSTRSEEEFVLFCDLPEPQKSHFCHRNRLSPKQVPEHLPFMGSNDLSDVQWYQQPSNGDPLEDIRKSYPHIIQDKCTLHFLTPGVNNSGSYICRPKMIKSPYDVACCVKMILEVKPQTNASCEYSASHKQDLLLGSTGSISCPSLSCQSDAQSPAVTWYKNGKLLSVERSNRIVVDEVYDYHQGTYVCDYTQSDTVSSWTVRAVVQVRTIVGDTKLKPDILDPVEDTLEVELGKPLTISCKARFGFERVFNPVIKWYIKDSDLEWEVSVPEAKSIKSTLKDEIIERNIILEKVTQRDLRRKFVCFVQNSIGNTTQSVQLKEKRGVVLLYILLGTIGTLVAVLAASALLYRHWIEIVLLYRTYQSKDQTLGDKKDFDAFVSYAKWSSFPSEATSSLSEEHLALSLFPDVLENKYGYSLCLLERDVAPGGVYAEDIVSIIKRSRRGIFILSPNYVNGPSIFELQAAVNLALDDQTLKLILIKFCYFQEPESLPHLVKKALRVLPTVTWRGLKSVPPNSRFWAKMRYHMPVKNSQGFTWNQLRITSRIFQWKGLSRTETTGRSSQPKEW

T2: human IL-18BP-His (human, UniProt O95998 31-194, limits assumed)
T2 construct: also called His-tagged human IL-18BP; not shown: His tag
T2 sequence (looked up): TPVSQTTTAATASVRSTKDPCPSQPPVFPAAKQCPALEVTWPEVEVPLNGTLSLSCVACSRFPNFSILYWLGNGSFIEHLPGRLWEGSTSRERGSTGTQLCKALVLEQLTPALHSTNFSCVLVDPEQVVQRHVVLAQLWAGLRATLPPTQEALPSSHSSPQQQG


How the values were obtained:
[1] = molecular target: T1, IL-18 receptor (IL-18Rα/IL-18Rβ) on …; experiment: cell-based or functional assay
[2] = molecular target: T1, IL-18 receptor (IL-18Rα/IL-18Rβ) on …; experiment: cell-based or functional assay; remark: listed apart in the source
[3] = molecular target: T2, human IL-18BP-His; experiment: AlphaLISA of free IL-18BP
Description: The plate is incubated further for 1 hr at room temperature. Under subdued light, 12.5 µL of 2× streptavidin (SA) donor beads are pipetted into each well, and the wells are incubated with shaking for an additional 30 min at room temperature. The AlphaLisa signal is then measured on an Enspire plate reader with 680 and 615 nm as excitation and emission wavelengths, respectively. The dissociation constant (K_D) is calculated based on a variable slope, four parameter analysis using GraphPad PRISM software.

Row | Binder | EC50, HEK-Blue IL18R reporter cells [1] [pM] | EC50, IFNγ stimulation, NK92 cells [2] [nM] | Kd [3] [nM]
1 | IL-18 polypeptide C150 (ligand, also called V11I, T34A, C38A, K53A, C76A, C127A) YFGKLESKLSIIRNLNDQVLFIDQGNRPLFEDMADSDARDNAPRTIFIISMYADSQPRGMAVTISVKCEKISTLSAENKIISFKEMNPPDNIKDTKSDIIFFQRSVPGHDNKMQFESSSYEGYFLAAEKERDLFKLILKKEDELGDRSIMFTVQNED | 0.7 | 0.015 | 1.24
2 | IL-18 polypeptide C154 (ligand, also called V11I, E31A, D37A, C38A, K53A, C76A, C127A) YFGKLESKLSIIRNLNDQVLFIDQGNRPLFADMTDSAARDNAPRTIFIISMYADSQPRGMAVTISVKCEKISTLSAENKIISFKEMNPPDNIKDTKSDIIFFQRSVPGHDNKMQFESSSYEGYFLAAEKERDLFKLILKKEDELGDRSIMFTVQNED | 11.9 | 0.062 | 2.12
3 | IL-18 polypeptide C151 (ligand, also called V11I, D35A, C38A, K53A, C76A, C127A) YFGKLESKLSIIRNLNDQVLFIDQGNRPLFEDMTASDARDNAPRTIFIISMYADSQPRGMAVTISVKCEKISTLSAENKIISFKEMNPPDNIKDTKSDIIFFQRSVPGHDNKMQFESSSYEGYFLAAEKERDLFKLILKKEDELGDRSIMFTVQNED | 13.1 | 0.061 | 2.88
4 | IL-18 polypeptide C156 (ligand, also called V11I, C38A, N41A, K53A, C76A, C127A) YFGKLESKLSIIRNLNDQVLFIDQGNRPLFEDMTDSDARDAAPRTIFIISMYADSQPRGMAVTISVKCEKISTLSAENKIISFKEMNPPDNIKDTKSDIIFFQRSVPGHDNKMQFESSSYEGYFLAAEKERDLFKLILKKEDELGDRSIMFTVQNED | 11.7 | 0.558 | 18.5
5 | IL-18 polypeptide C153 (ligand, also called V11I, D37A, C38A, K53A, C76A, C127A) YFGKLESKLSIIRNLNDQVLFIDQGNRPLFEDMTDSAARDNAPRTIFIISMYADSQPRGMAVTISVKCEKISTLSAENKIISFKEMNPPDNIKDTKSDIIFFQRSVPGHDNKMQFESSSYEGYFLAAEKERDLFKLILKKEDELGDRSIMFTVQNED | 14.1 | 0.175 | 4.55
6 | IL-18 polypeptide C152 (ligand, also called V11I, S36A, C38A, K53A, C76A, C127A) YFGKLESKLSIIRNLNDQVLFIDQGNRPLFEDMTDADARDNAPRTIFIISMYADSQPRGMAVTISVKCEKISTLSAENKIISFKEMNPPDNIKDTKSDIIFFQRSVPGHDNKMQFESSSYEGYFLAAEKERDLFKLILKKEDELGDRSIMFTVQNED | 0.25 | 0.033 | 1.12
7 | IL-18 polypeptide C158 (ligand, also called V11I, C38A, K53A, C76A, G108A, C127A) YFGKLESKLSIIRNLNDQVLFIDQGNRPLFEDMTDSDARDNAPRTIFIISMYADSQPRGMAVTISVKCEKISTLSAENKIISFKEMNPPDNIKDTKSDIIFFQRSVPAHDNKMQFESSSYEGYFLAAEKERDLFKLILKKEDELGDRSIMFTVQNED | 15.6 | 0.073 | 1.24
8 | IL-18 polypeptide C162 (ligand, also called K8E, V11I, C38A, C76A, Q103R, C127A) YFGKLESELSIIRNLNDQVLFIDQGNRPLFEDMTDSDARDNAPRTIFIISMYKDSQPRGMAVTISVKCEKISTLSAENKIISFKEMNPPDNIKDTKSDIIFFRRSVPGHDNKMQFESSSYEGYFLAAEKERDLFKLILKKEDELGDRSIMFTVQNED | 2.3 | 0.061 | 0.85
9 | IL-18 polypeptide C157 (ligand, also called V11I, C38A, K53A, C76A, C127A, D132A) YFGKLESKLSIIRNLNDQVLFIDQGNRPLFEDMTDSDARDNAPRTIFIISMYADSQPRGMAVTISVKCEKISTLSAENKIISFKEMNPPDNIKDTKSDIIFFQRSVPGHDNKMQFESSSYEGYFLAAEKERALFKLILKKEDELGDRSIMFTVQNED | 1.95 | 0.056 | 13.7

These reach a lower Kd [3]. Values come first.

Row | EC50, HEK-Blue IL18R reporter cells [1] [pM] | EC50, IFNγ stimulation, NK92 cells [2] [nM] | Kd [3] [nM] | Binder
10 | 3.14 | 0.414 | 0.08 | IL-18 polypeptide C164 (ligand, also called V11I, C38A, S55H, C76A, C127A) YFGKLESKLSIIRNLNDQVLFIDQGNRPLFEDMTDSDARDNAPRTIFIISMYKDHQPRGMAVTISVKCEKISTLSAENKIISFKEMNPPDNIKDTKSDIIFFQRSVPGHDNKMQFESSSYEGYFLAAEKERDLFKLILKKEDELGDRSIMFTVQNED
11 | 19.5 | 0.123 | 0.55 | IL-18 polypeptide C159 (ligand, also called V11I, C38A, K53A, C76A, H109A, C127A) YFGKLESKLSIIRNLNDQVLFIDQGNRPLFEDMTDSDARDNAPRTIFIISMYADSQPRGMAVTISVKCEKISTLSAENKIISFKEMNPPDNIKDTKSDIIFFQRSVPGADNKMQFESSSYEGYFLAAEKERDLFKLILKKEDELGDRSIMFTVQNED
12 | 0.52 | 0.067 | 0.74 | IL-18 polypeptide C155 (ligand, also called V11I, C38A, D40A, K53A, C76A, C127A) YFGKLESKLSIIRNLNDQVLFIDQGNRPLFEDMTDSDARANAPRTIFIISMYADSQPRGMAVTISVKCEKISTLSAENKIISFKEMNPPDNIKDTKSDIIFFQRSVPGHDNKMQFESSSYEGYFLAAEKERDLFKLILKKEDELGDRSIMFTVQNED
13 | 2.02 | 0.028 | 0.71 | IL-18 polypeptide C160 (ligand, also called V11I, C38A, K53A, C76A, D110A, C127A) YFGKLESKLSIIRNLNDQVLFIDQGNRPLFEDMTDSDARDNAPRTIFIISMYADSQPRGMAVTISVKCEKISTLSAENKIISFKEMNPPDNIKDTKSDIIFFQRSVPGHANKMQFESSSYEGYFLAAEKERDLFKLILKKEDELGDRSIMFTVQNED
14 | 1.5 | 0.093 | 0.05 | IL-18 polypeptide C163 (ligand, also called V11I, C38A, C76A, Q103K, C127A) YFGKLESKLSIIRNLNDQVLFIDQGNRPLFEDMTDSDARDNAPRTIFIISMYKDSQPRGMAVTISVKCEKISTLSAENKIISFKEMNPPDNIKDTKSDIIFFKRSVPGHDNKMQFESSSYEGYFLAAEKERDLFKLILKKEDELGDRSIMFTVQNED
15 | 4.73 | 0.098 | 0.02 | IL-18 polypeptide C166 (ligand, also called V11I, C38A, S55T, C76A, C127A) YFGKLESKLSIIRNLNDQVLFIDQGNRPLFEDMTDSDARDNAPRTIFIISMYKDTQPRGMAVTISVKCEKISTLSAENKIISFKEMNPPDNIKDTKSDIIFFQRSVPGHDNKMQFESSSYEGYFLAAEKERDLFKLILKKEDELGDRSIMFTVQNED
16 | 1.91 | 0.176 | 0.15 | IL-18 polypeptide C165 (ligand, also called V11I, C38A, S55R, C76A, C127A) YFGKLESKLSIIRNLNDQVLFIDQGNRPLFEDMTDSDARDNAPRTIFIISMYKDRQPRGMAVTISVKCEKISTLSAENKIISFKEMNPPDNIKDTKSDIIFFQRSVPGHDNKMQFESSSYEGYFLAAEKERDLFKLILKKEDELGDRSIMFTVQNED
17 | 2.01 | 0.057 | 0.06 | IL-18 polypeptide C161 (ligand, also called K8R, V11I, C38A, C76A, Q103E, C127A) YFGKLESRLSIIRNLNDQVLFIDQGNRPLFEDMTDSDARDNAPRTIFIISMYKDSQPRGMAVTISVKCEKISTLSAENKIISFKEMNPPDNIKDTKSDIIFFERSVPGHDNKMQFESSSYEGYFLAAEKERDLFKLILKKEDELGDRSIMFTVQNED
